This note sets out measurements from article doi:10.1101/2020.10.13.337493 (bioRxiv, 2020).

As a reminder, the stoichiometry N is the number of molecules, sites or subunits per partner or assembly.

The chains are these.
B2: N-PH-FFAT construct of OSBP (domain or fragment, human, UniProt P22059 1-408, looked up)
chain: MAATELRGVVGPGPAAIAALGGGGAGPPVVGGGGGRGDAGPGSGAASGTVVAAAAGGPGPGAGGVAAAGPAPAPPTGGSGGSGAGGSGSAREGWLFKWTNYIKGYQRRWFVLSNGLLSYYRSKAEMRHTCRGTINLATANITVEDSCNFIISNGGAQTYHLKASSEVERQRWVTALELAKAKAVKMLAESDESGDEESVSQTDKTELQNTLRTLSSKVEDLSTCNDLIAKHGTALQRSLSELESLKLPAESNEKIKQVNERATLFRITSNAMINACRDFLMLAQTHSKKWQKSLQYERDQRIRLEETLEQLAKQHNHLERAFRGATVLPANTPGNVGSGKDQCCSGKGDMSDEDDENEFFDAPEIITMPENLGHKRTGSNISGASSDISLDEQYKHQLEETKKEKRTR

Series [1] has as its target OSBP CC[V199C] construct (V199C/C224A/C276A), labelled with AF-488 or AF-568 (human) (UniProt P22059). The series is described as follows: FRET or BRET. (In general: Bioluminescence resonance energy transfer reports proximity on the nanometre scale.)
For series [2], the target named is OSBP Central Core (CC), wild type (human) (UniProt P22059). The series can be described thus: SEC. In general terms: Size exclusion chromatography separates by hydrodynamic size, large species first.
Series [3] concerns the molecule itself. The series can be described thus: cryo-EM structure.
Series [4] concerns the target B2. The series is described as follows: membrane tethering in reconstituted contact sites, seen by cryo-EM and cryo-ET.

As for “OSBP CC[V199C] construct (V199C/C224A/C276A), labelled with AF-488 or AF-568 (from UniProt P22059 199-324) (domain or fragment)”, the half-time of monomer exchange in series [1] amounted to 100 min. “OSBP Central Core (CC), wild type (from UniProt P22059 199-324) (domain or fragment)” registered a stoichiometry N in series [2] of 2.

B1: VAP-A (natural protein, human, UniProt Q9P0L0 8-249, looked up)
chain: MAKHEQILVLDPPTDLKFKGPFTDVVTTNLKLRNPSDRKVCFKVKTTAPRRYCVRPNSGIIDPGSTVTVSVMLQPFDYDPNEKSKHKFMVQTIFAPPNTSDMEAVWKEAKPDELMDSKLRCVFEMPNENDKLNDMEPSKAVPLNASKQDGPMPKPHSVSLNDTETRKLMEECKRLQGEMMKLSEENRHLRDEGLRLRKVAHSDKPGSTSTASFRDNVTSPLPSLLVVIAAIFIGFFLGKFIL
Consider B1, for which the “stoichiometry N” value in series [3] turned out to be 2. In series [4], the binding result is recorded as “binds”. As to B2, the “stoichiometry N” value in series [3] was 2.
